According to US9474782B2, “Use of decorin for increasing muscle mass” (Association Francaise contre les Myopathies, priority 2009, dated 2016):
“And” between values parts separate entries of the source, which are not always exact repeats. Identical values can stand only once.

B1: mDecorin: recombinant mouse decorin (mDecorin) of sequence SEQ ID NO: 6, provided by R&D Systems (protein)
chain: MKATLIFFLLAQVSWAGPFEQRGLFDFMLEDEASGIIPYDPDNPLISMCPYRCQCHLRVVQCSDLGLDKVPWDFPPDTTLLDLQNNKITEIKEGAFKNLKDLHTLILVNNKISKISPEAFKPLVKLERLYLSKNQLKELPEKMPRTLQELRVHENEITKLRKSDFNGLNNVLVIELGGNPLKNSGIENGAFQGLKSLSYIRISDTNITAIPQGLPTSLTEVHLDGNKITKVDAPSLKGLINLSKLGLSFNSITVMENGSLANVPHLRELHLDNNKLLRVPAGLAQHKYIQVVYLHNNNISAVGQNDFCRAGHPSRKASYSAVSLYGNPVRYWEIFPNTFRCVYVRSAIQLGNYK
modifications: murine DCN

Key:
mdx mice = test: Weight of tibialis anterior muscles after intramuscular injection into dystrophic mdx mice; assay type: in vivo, mouse; settings: for Activity of decorin fragment on muscle growth (ability to increase muscle mass), in words: decorin fragments, intramuscular injection
Method: The protein used was recombinant mouse decorin (mDecorin) of sequence SEQ ID NO: 6, provided by R&D Systems. Twenty-four to forty hours before the injection, 100 μl of 150 mM sterile NaCl and 6 μl of 250 μM ZnCl2 were added to 100 μg of mDecorin powder. The final volume was 106 μl with a final concentration of approximately 1 μg/μl. For the injections into the control muscles a mixture was also prepared of 100 μl of 150 mM NaCl and 6 μl of 250 μM ZnCl2. All these solutions, after being vortexed, were stored at 4° C. In Vivo Injection mdx dystrophic ([…] muscular dystrophy) or gamma-sarcoglycan −/− mice were used that were at least 6 weeks old. 20 μg of mDecorin, i.e. 22 μl of the solution described above (20 μg Decorin+15 μM ZnCl2/22 μl NaCl), were injected into the left tibialis anterior (LTA), the muscle treated. 22 μl of the control solution described above (15 μM ZnCl2/22 μl NaCl) were administered into the control muscle, the right tibialis anterior (RTA). A specific number of days after injection, the mice were sacrificed and the RTA and LTA were removed, weighed then frozen for further histological study. Preparation and Injection of the Solution Containing the Peptide mDCN 31-71: […] It was dissolved at 2 mg/ml in 150 mM NaCl and stored at −80° C. For injections, the preparation protocol was identical to that used for the protein, i.e. 24-40 hours before injection, the desired amount of peptide was removed from the stock solution and mixed with a solution of zinc chloride (ZnCl2) and 150 mM NaCl, to produce a final zinc concentration of 15 μM. The injection protocol was identical to that used for the protein. The RTA and LTA muscles were collected 7 (D7), 14 (D14) or 21 (D21) days after the injection and weighed. The experiment was repeated on three separate mice each time. The results are summarised in the following tables: mdx Mice were Injected Intramuscularly into the TA with the Following Formulations: LTA 1: 65 μg peptide 41 DCN+15 μM ZnCl2/33 μl NaCl; RTA 2: 15 μM ZnCl2/33 μl NaCl. At D18, the mice were sacrificed and the weight of the RTA and LTA muscles was measured.

[1] = test system: gamma-sarcoglycan -/- mice; test: Weight of tibialis anterior muscles at D18 after intramuscular injection into dystrophic gamma-sarcoglycan -/- mice; assay type: in vivo; settings: D18, one value per mouse
Method: The protein used was recombinant mouse decorin (mDecorin) of sequence SEQ ID NO: 6, provided by R&D Systems. Twenty-four to forty hours before the injection, 100 μl of 150 mM sterile NaCl and 6 μl of 250 μM ZnCl2 were added to 100 μg of mDecorin powder. The final volume was 106 μl with a final concentration of approximately 1 μg/μl. For the injections into the control muscles a mixture was also prepared of 100 μl of 150 mM NaCl and 6 μl of 250 μM ZnCl2. All these solutions, after being vortexed, were stored at 4° C. In Vivo Injection mdx dystrophic ([…] muscular dystrophy) or gamma-sarcoglycan −/− mice were used that were at least 6 weeks old. 20 μg of mDecorin, i.e. 22 μl of the solution described above (20 μg Decorin+15 μM ZnCl2/22 μl NaCl), were injected into the left tibialis anterior (LTA), the muscle treated. 22 μl of the control solution described above (15 μM ZnCl2/22 μl NaCl) were administered into the control muscle, the right tibialis anterior (RTA). A specific number of days after injection, the mice were sacrificed and the RTA and LTA were removed, weighed then frozen for further histological study. A second series of experiments was performed on four gamma-sarcoglycan −/− mice. The protocol was identical to that described for mdx mice. The mice were sacrificed on D18.

Molecule	Activity of decorin fragment on muscle growth (ability to increase muscle mass), in words (mdx mice)	Weight of treated muscle (LTA) (mdx mice; 65 μg peptide + 15 μM ZnCl2/33 μl NaCl intramuscular into left tibialis anterior, D18, one value per mouse)	Growth (mdx mice; 65 μg peptide + 15 μM ZnCl2/33 μl NaCl intramuscular, treated LTA vs control RTA, D18, one value per mouse)	Weight of treated muscle (LTA) ([1]; 20 μg mDecorin + 15 μM ZnCl2 intramuscular into left tibialis anterior)	Growth ([1]; 20 μg mDecorin + 15 μM ZnCl2 intramuscular, treated LTA vs control RTA)	Weight of treated muscle (LTA) (mdx mice; 20 μg mDecorin + 15 μM ZnCl2 intramuscular into left tibialis anterior, Day 7, one value per mouse)	Weight of treated muscle (LTA) (mdx mice; 20 μg mDecorin + 15 μM ZnCl2 intramuscular into left tibialis anterior, Day 14, one value per mouse)	Weight of treated muscle (LTA) (mdx mice; 20 μg mDecorin + 15 μM ZnCl2 intramuscular into left tibialis anterior, Day 21, one value per mouse)	Growth in % (100*LTA/RTA) − 100 (mdx mice; 20 μg mDecorin + 15 μM ZnCl2 intramuscular, treated LTA vs control RTA, Day 7, one value per mouse)	Growth (mdx mice; 20 μg mDecorin + 15 μM ZnCl2 intramuscular, treated LTA vs control RTA, Day 14, one value per mouse)	Growth (increase in muscle mass) (mdx mice; 20 μg mDecorin + 15 μM ZnCl2 intramuscular, treated LTA vs control RTA, Day 21, one value per mouse)	Growth (increase in muscle mass) (mdx mice; 20 μg mDecorin + 15 μM ZnCl2 intramuscular, treated LTA vs control RTA, Day 21, one value per mouse, listed as decorin)
SEQ ID NO:15: fragment of 30 residues (residues 42 to 71 of murine decorin SEQ ID NO: 6) (DNPLISMCPYRCQCHLRVVQCSDLGLDKVP; murine 42-71 DCN)	also active											
mDCN 31-71: peptide (SEQ ID NO: 7) corresponding to residues 31-71 of murine decorin, zinc-binding N-terminal part, synthesised by NeoMPS (DEASGIIPYDPDNPLISMCPYRCQCHLRVVQCSDLGLDKVP; murine 31-71 DCN)	had the required activity	0.0583 g and 0.0468 g and 0.05 g	8.77% and 19.39% and 24.69%									
B1				0.0505 g and 0.0485 g and 0.0593 g and 0.0551 g	10.75% and 17.43% and 12.31% and 24.10%	0.0682 g and 0.0781 g and 0.0771 g	0.1124 g and 0.103 g and 0.0911 g	0.1041 g and 0.0943 g and 0.1003 g	3.18% and 0.90% and 2.94%	58.98% and 48.41% and 6.67%	53.09% and 66.31% and 37.21%	53.09% and 66.31%
